# Tests used:
# Experiment in all cases: Ki fitted from Suc-AAPF-pNA activity in Model B detergent; IF relative to SEQ ID NO 3 comprising S173P + S175P + F180Y
# [1] = molecular target: TY145 (SEQ ID NO 3) variant I150N + S173P + S175P + F180Y
# [2] = molecular target: TY145 (SEQ ID NO 3) variant I150T + S173P + S175P + F180Y
# [3] = molecular target: TY145 (SEQ ID NO 3) variant S114F + S173P + S175P + F180Y
# [4] = molecular target: TY145 (SEQ ID NO 3) variant Q70F + S173P + S175P + F180Y
# [5] = molecular target: TY145 (SEQ ID NO 3) variant S111I + S173P + S175P + F180Y
# [6] = molecular target: TY145 (SEQ ID NO 3) variant S173P + S175P + F180Y + L184H
# [7] = molecular target: TY145 (SEQ ID NO 3) variant S114A + S173P + S175P + F180Y
# [8] = molecular target: TY145 (SEQ ID NO 3) variant S114Q + S173P + S175P + F180Y
# [9] = molecular target: TY145 (SEQ ID NO 3) variant K146A + S173P + S175P + F180Y
# [10] = molecular target: TY145 (SEQ ID NO 3) variant K146W + S173P + S175P + F180Y
# [11] = molecular target: TY145 (SEQ ID NO 3) variant S173P + S175P + F180Y + G182S
# [12] = molecular target: TY145 (SEQ ID NO 3) variant S173P + S175P + F180Y + L184F
# [13] = molecular target: TY145 (SEQ ID NO 3) variant S173P + S175P + I178F + F180Y
# [14] = molecular target: TY145 (SEQ ID NO 3) variant I150A + S173P + S175P + F180Y
# [15] = molecular target: TY145 (SEQ ID NO 3) variant I150V + S173P + S175P + F180Y
# [16] = molecular target: TY145 (SEQ ID NO 3) variant S173P + S175P + I178Y + F180Y
# [17] = molecular target: TY145 (SEQ ID NO 3) variant I150S + S173P + S175P + F180Y
# [18] = molecular target: TY145 (SEQ ID NO 3) variant Q70Y + S173P + S175P + F180Y
# Sequence of TY145 (SEQ ID NO 3) variant Q70Y + S173P + S175P + F180Y (chain, as listed by the source Q70Y S173P S175P F180Y Q70Y S173P S175P F180Y limits assumed): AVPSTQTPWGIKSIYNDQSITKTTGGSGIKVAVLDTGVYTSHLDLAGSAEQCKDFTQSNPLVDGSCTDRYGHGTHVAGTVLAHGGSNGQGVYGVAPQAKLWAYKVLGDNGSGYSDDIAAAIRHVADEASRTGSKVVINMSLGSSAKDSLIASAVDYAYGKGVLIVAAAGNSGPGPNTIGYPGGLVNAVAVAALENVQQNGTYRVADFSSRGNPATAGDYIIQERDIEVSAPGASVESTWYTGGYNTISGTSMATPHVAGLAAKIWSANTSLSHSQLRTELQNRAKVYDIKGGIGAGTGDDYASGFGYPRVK
# [19] = molecular target: TY145 (SEQ ID NO 3) variant K146R + S173P + S175P + F180Y
# [20] = molecular target: TY145 (SEQ ID NO 3) variant S173P + S175P + F180Y + L184Y
# [21] = molecular target: TY145 (SEQ ID NO 3) variant S173P + S175P + F180Y + G182A
# [22] = molecular target: TY145 (SEQ ID NO 3) variant K146N + S173P + S175P + F180Y
# Sequence of TY145 (SEQ ID NO 3) variant I150T + S173P + S175P + F180Y (chain, as listed by the source I150T S173P S175P F180Y I150T S173P S175P F180Y limits assumed): as the sequence (chain, as listed by the source Q70Y S173P S175P F180Y Q70Y S173P S175P F180Y limits assumed) above, with Y70Q, I150T counted along it
# Sequence of TY145 (SEQ ID NO 3) variant Q70F + S173P + S175P + F180Y (chain, as listed by the source Q70F S173P S175P F180Y Q70F S173P S175P F180Y limits assumed): as the sequence (chain, as listed by the source Q70Y S173P S175P F180Y Q70Y S173P S175P F180Y limits assumed) above, with Y70F counted along it
substance,measurement,setting,value
Inhibitor 1: Cbz-Gly-Ala-NHCH(CH2C6H4pOH)C(OH)(SO3Na)-H (peptide),"IF (binding constant improvement factor, relative Ki)",[1],3.58
same,"IF (binding constant improvement factor, relative Ki)",[2],4.15
same,"IF (binding constant improvement factor, relative Ki)",[3],1.41
same,"IF (binding constant improvement factor, relative Ki)",[4],11.8
same,"IF (binding constant improvement factor, relative Ki)",[5],1.12
same,"IF (binding constant improvement factor, relative Ki)",[6],2.5
same,"IF (binding constant improvement factor, relative Ki)",[7],3.33
same,"IF (binding constant improvement factor, relative Ki)",[8],2.03
same,"IF (binding constant improvement factor, relative Ki)",[9],3.72
same,"IF (binding constant improvement factor, relative Ki)",[10],5.47
same,"IF (binding constant improvement factor, relative Ki)",[11],1.69
same,"IF (binding constant improvement factor, relative Ki)",[12],4.28
same,"IF (binding constant improvement factor, relative Ki)",[13],2.34
same,"IF (binding constant improvement factor, relative Ki)",[14],2.52
same,"IF (binding constant improvement factor, relative Ki)",[15],1.8
same,"IF (binding constant improvement factor, relative Ki)",[16],2.15
same,"IF (binding constant improvement factor, relative Ki)",[17],5.7
same,"IF (binding constant improvement factor, relative Ki)",[18],7.44
same,"IF (binding constant improvement factor, relative Ki)",[19],1.31
same,"IF (binding constant improvement factor, relative Ki)",[20],3.91
same,"IF (binding constant improvement factor, relative Ki)",[21],2.49
same,"IF (binding constant improvement factor, relative Ki)",[22],1.36

# — patent publication US20170342349A1, “STABILIZED ENZYME COMPOSITIONS” (NOVOZYMES A/S, priority 2014, published 2017)
